The values that follow come from the supplement of paper PMC9112550, “Optimization of the antimicrobial peptide Bac7 by deep mutational scanning” (BMC Biology, 2022).

The series concerns Escherichia coli TOP10. The experiment in a line: shrunken log2 fold change of peptide-encoding DNA abundance (4.5 h post-induction vs induction); higher = less antimicrobial activity (less host growth inhibition). Conditions: time post-induction: 4.5 h; library: site-saturation at positions 5, 18, 19, 20.
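Note: peptides expressed intracellularly from a pBAD plasmid library in pooled LB shake-flask culture, induced with 0.3% L-arabinose, DNA abundance read by NGS, three biological replicates, DESeq2 with apeglm shrinkage.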

As to RRIRCRPPRLPRPRPRPLMDPRP, the “shrunken log2 fold change” value is -0.256. Turning to RRIRPRPPRLPRPRPRPRIMPRP, the “shrunken log2 fold change” value is -0.0771. On to RRIRTRPPRLPRPRPRPRSEPRP, for which the “shrunken log2 fold change” value was found to be 0.116. Regarding RRIRARPPRLPRPRPRPNSTPRP, the “shrunken log2 fold change” value came out at 0.0264. On to RRIRMRPPRLPRPRPRPHWGPRP, for which the “shrunken log2 fold change” value came out at 0.12.

For the sequence RRIRYRPPRLPRPRPRPHWTPRP, the “shrunken log2 fold change” value was -0.0421. For RRIRVRPPRLPRPRPRPDIMPRP, the “shrunken log2 fold change” value was -0.18. With RRIRMRPPRLPRPRPRPKNTPRP, the “shrunken log2 fold change” value came to 0.575. Consider RRIRERPPRLPRPRPRPEQEPRP, for which the “shrunken log2 fold change” value was -0.0107.

Turning to RRIRMRPPRLPRPRPRPDACPRP, the “shrunken log2 fold change” value worked out at 1.97.

Consider RRIRERPPRLPRPRPRPNYYPRP, for which the “shrunken log2 fold change” value was -0.893. As for RRIRSRPPRLPRPRPRPRSEPRP, the “shrunken log2 fold change” value is 0.0656. The same measure for RRIRPRPPRLPRPRPRPPEKPRP: 0.544; for RRIRFRPPRLPRPRPRPTGHPRP: -0.287. With RRIRARPPRLPRPRPRPQKLPRP, the “shrunken log2 fold change” value was 0.298.

As to RRIRDRPPRLPRPRPRPPEQPRP, the “shrunken log2 fold change” value amounted to 0.261. Regarding RRIRFRPPRLPRPRPRPNFFPRP, the “shrunken log2 fold change” value is -0.178.

For RRIRKRPPRLPRPRPRPNIVPRP, the “shrunken log2 fold change” value amounted to 0.135. On to RRIRHRPPRLPRPRPRPDKPPRP, for which the “shrunken log2 fold change” value was -0.0375. With RRIRGRPPRLPRPRPRPAAAPRP, the “shrunken log2 fold change” value turned out to be 2.36. Under RRIRRRPPRLPRPRPRPALEPRP stands 0.264; under RRIRARPPRLPRPRPRPHSDPRP, 0.39. As for RRIRSRPPRLPRPRPRPFGQPRP, the “shrunken log2 fold change” value was -0.197. As for RRIRTRPPRLPRPRPRPQRIPRP, the “shrunken log2 fold change” value was -0.131. The same measure for RRIRHRPPRLPRPRPRPPSIPRP: -0.165; for RRIRFRPPRLPRPRPRPDKCPRP: -0.18; for RRIRDRPPRLPRPRPRPDYWPRP: -0.00116. Take RRIRWRPPRLPRPRPRPWLNPRP: the “shrunken log2 fold change” value is -0.227.

Turning to RRIRDRPPRLPRPRPRPFWLPRP, the “shrunken log2 fold change” value is 0.00235. Regarding RRIRRRPPRLPRPRPRPCCNPRP, the “shrunken log2 fold change” value is -0.029. For RRIRTRPPRLPRPRPRPVMKPRP, the “shrunken log2 fold change” value was determined as 0.00771. Under RRIRYRPPRLPRPRPRPAYCPRP stands -0.0229; under RRIRLRPPRLPRPRPRPCIYPRP, -1.16. The same measure for RRIRSRPPRLPRPRPRPCCTPRP: -0.0345; for RRIRIRPPRLPRPRPRPWFHPRP: -0.768; for RRIRYRPPRLPRPRPRPKIQPRP: -0.68.

Regarding RRIRERPPRLPRPRPRPVLDPRP, the “shrunken log2 fold change” value was -0.12. With RRIRRRPPRLPRPRPRPYYMPRP, the “shrunken log2 fold change” value was -0.408. Under RRIRSRPPRLPRPRPRPDHNPRP stands -0.308. As to RRIRMRPPRLPRPRPRPYWSPRP, the “shrunken log2 fold change” value was -0.186.

Consider RRIRCRPPRLPRPRPRPMCMPRP, for which the “shrunken log2 fold change” value was -0.232.

Consider RRIRFRPPRLPRPRPRPCECPRP, for which the “shrunken log2 fold change” value is -0.138. In the case of RRIRTRPPRLPRPRPRPNFRPRP, the “shrunken log2 fold change” value was -0.152. As for RRIRVRPPRLPRPRPRPMPNPRP, the “shrunken log2 fold change” value is -0.116.

Take RRIRSRPPRLPRPRPRPAAAPRP: the “shrunken log2 fold change” value stood at 0.868.

With RRIRDRPPRLPRPRPRPTVWPRP, the “shrunken log2 fold change” value is 0.527. Under RRIRGRPPRLPRPRPRPNLFPRP stands 0.129; under RRIRDRPPRLPRPRPRPCSCPRP, 0.173; under RRIRRRPPRLPRPRPRPEPPPRP, 1.02. With RRIRVRPPRLPRPRPRPPNNPRP, the “shrunken log2 fold change” value is -0.233. Under RRIRKRPPRLPRPRPRPIGLPRP stands 0.0815; under RRIRERPPRLPRPRPRPDCEPRP, -0.0494; under RRIRARPPRLPRPRPRPHVQPRP, 0.00547. Under RRIRNRPPRLPRPRPRPASNPRP stands -0.065; under RRIRVRPPRLPRPRPRPQDEPRP, -0.114.

Take RRIRMRPPRLPRPRPRPHIYPRP: the “shrunken log2 fold change” value is -0.289. On to RRIRCRPPRLPRPRPRPWSFPRP, for which the “shrunken log2 fold change” value is -0.0435.

With RRIRVRPPRLPRPRPRPSAEPRP, the “shrunken log2 fold change” value came out at 0.299.

For the sequence RRIRHRPPRLPRPRPRPWQYPRP, the “shrunken log2 fold change” value is -0.17. With RRIRMRPPRLPRPRPRPYYYPRP, the “shrunken log2 fold change” value was -0.304. As for RRIRSRPPRLPRPRPRPRQMPRP, the “shrunken log2 fold change” value was determined as 0.38. Under RRIRERPPRLPRPRPRPYMCPRP stands -0.216; under RRIRSRPPRLPRPRPRPGNAPRP, 0.119. Regarding RRIRLRPPRLPRPRPRPQQDPRP, the “shrunken log2 fold change” value is -0.29. With RRIRRRPPRLPRPRPRPVNFPRP, the “shrunken log2 fold change” value was -0.0106. As for RRIRNRPPRLPRPRPRPSTQPRP, the “shrunken log2 fold change” value is -0.502.

With RRIRRRPPRLPRPRPRPSMAPRP, the “shrunken log2 fold change” value is -0.142. Under RRIRWRPPRLPRPRPRPANNPRP stands -0.205; under RRIRHRPPRLPRPRPRPLEKPRP, -0.1; under RRIRDRPPRLPRPRPRPYVFPRP, -0.18. Under RRIRKRPPRLPRPRPRPGDNPRP stands 0.046; under RRIRARPPRLPRPRPRPSAGPRP, 0.65.

As to RRIRWRPPRLPRPRPRPQVYPRP, the “shrunken log2 fold change” value is -0.015.

With RRIRWRPPRLPRPRPRPHEYPRP, the “shrunken log2 fold change” value is -0.147. In the case of RRIRDRPPRLPRPRPRPCENPRP, the “shrunken log2 fold change” value worked out at 0.0231. RRIRTRPPRLPRPRPRPAQIPRP: the “shrunken log2 fold change” value was found to be 0.358. On to RRIRYRPPRLPRPRPRPYEGPRP, for which the “shrunken log2 fold change” value was -0.00776. In the case of RRIRSRPPRLPRPRPRPSDFPRP, the “shrunken log2 fold change” value is -0.536.

With RRIRRRPPRLPRPRPRPCMTPRP, the “shrunken log2 fold change” value was 0.409. Consider RRIRERPPRLPRPRPRPEETPRP, for which the “shrunken log2 fold change” value was -0.0248.

As for RRIRKRPPRLPRPRPRPGQQPRP, the “shrunken log2 fold change” value was 0.0114. On to RRIRQRPPRLPRPRPRPELGPRP, for which the “shrunken log2 fold change” value was 0.0387. As to RRIRWRPPRLPRPRPRPSDEPRP, the “shrunken log2 fold change” value was -0.117. For RRIRSRPPRLPRPRPRPDIYPRP, the “shrunken log2 fold change” value is -0.194. Consider RRIRMRPPRLPRPRPRPQGRPRP, for which the “shrunken log2 fold change” value was found to be 0.113.

With RRIRFRPPRLPRPRPRPQCNPRP, the “shrunken log2 fold change” value was -0.531. Regarding RRIRSRPPRLPRPRPRPTHYPRP, the “shrunken log2 fold change” value is -0.125. In the case of RRIRMRPPRLPRPRPRPANGPRP, the “shrunken log2 fold change” value was determined as 0.094. With RRIRHRPPRLPRPRPRPASHPRP, the “shrunken log2 fold change” value stood at 0.0269. As to RRIRGRPPRLPRPRPRPIVFPRP, the “shrunken log2 fold change” value worked out at 0.194. Under RRIRFRPPRLPRPRPRPKRVPRP stands 0.598.
